Reference: patent publication CN113683697A (SHANGHAI XIANGYAO BIOTECHNOLOGY CO LTD, dated 2021)

How the values were obtained:
[1] = target: T1, 人B7-H3变体1(4Ig-B7-H3) on stable cells 293-h4Ig-B7-H3-copGFP (human, UniProt Q5ZPR3 29-534); assay: FACS, 293-h4Ig-B7-H3-copGFP stable cells
T1 construct: Full-length CDS cloned in pCDH-EF1-T2A-copGFP and expressed on stably transduced cells; residues left by T2A cleavage not described
T1 sequence: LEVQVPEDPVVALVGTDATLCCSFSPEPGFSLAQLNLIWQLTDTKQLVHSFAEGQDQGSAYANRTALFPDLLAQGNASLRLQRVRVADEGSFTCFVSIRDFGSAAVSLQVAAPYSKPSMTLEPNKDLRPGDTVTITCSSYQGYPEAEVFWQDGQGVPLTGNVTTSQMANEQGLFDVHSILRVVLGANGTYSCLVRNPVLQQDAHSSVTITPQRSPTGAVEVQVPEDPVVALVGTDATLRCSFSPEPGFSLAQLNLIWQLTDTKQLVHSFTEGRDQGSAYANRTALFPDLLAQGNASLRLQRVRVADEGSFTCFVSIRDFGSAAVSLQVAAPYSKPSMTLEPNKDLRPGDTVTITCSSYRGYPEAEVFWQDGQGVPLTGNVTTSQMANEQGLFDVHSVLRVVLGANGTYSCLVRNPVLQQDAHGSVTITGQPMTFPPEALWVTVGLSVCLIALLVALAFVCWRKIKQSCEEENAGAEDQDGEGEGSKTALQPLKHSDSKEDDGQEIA

[2] = target: T2, B7-H3 (4Ig-B7-H3) endogenously expressed on MDA-MB-231 cells (UniProt Q5ZPR3 29-534, limits assumed); assay: FACS, MDA-MB-231 cells
T2 construct: whole, on cells; also called 细胞表面的B7-H3抗原
T2 sequence (looked up): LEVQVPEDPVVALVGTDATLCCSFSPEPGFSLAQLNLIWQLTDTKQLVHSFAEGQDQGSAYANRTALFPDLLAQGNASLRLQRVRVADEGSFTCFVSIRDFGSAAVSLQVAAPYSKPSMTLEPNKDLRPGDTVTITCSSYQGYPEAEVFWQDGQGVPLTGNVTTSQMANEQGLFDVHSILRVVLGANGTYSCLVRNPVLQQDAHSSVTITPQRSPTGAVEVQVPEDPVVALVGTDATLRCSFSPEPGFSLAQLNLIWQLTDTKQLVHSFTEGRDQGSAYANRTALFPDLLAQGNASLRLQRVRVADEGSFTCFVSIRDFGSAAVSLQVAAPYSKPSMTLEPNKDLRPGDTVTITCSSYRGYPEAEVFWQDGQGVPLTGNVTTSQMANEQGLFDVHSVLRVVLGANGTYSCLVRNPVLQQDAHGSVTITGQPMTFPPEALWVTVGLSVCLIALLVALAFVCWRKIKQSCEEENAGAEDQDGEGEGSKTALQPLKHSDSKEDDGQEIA

B1: scFv-27B4-H1-L5 (scFv)
scFv: QVQLVQSGAEVKKPGASVKVSCKASGYTFTTYWMHWVRQAPGQGLEWMGIIYPGDGGSSYAQKFQGRVTMTRDTSTSTVYMELSSLRSEDTAVYYCARGGNYISFPMYYWGQGTLVTVSSGGGGSGGGGSGGGGSGGGGASDIVMTQTPLSLSVTPGQPASISCKASRGVSTALYWYLQKPGQPPQLLIYWASNRFSGVPDRFSGSGSGTDFTLKISRVEAEDVGVYYCQQHYDTPYTFGQGTKLEIK
notes: VH-linker-VL in phage display vector pXY, expressed in TG1, purified on a nickel column
binding result [1]: binds | binding result [2]: binds

B2: scFv-27B4-H2-L5 (scFv)
scFv: QVQLVQSGAEVKKPGSSVKVSCKASGYTFTTYWISWVRQAPGQGLEWMGGIYPGDGGSNYAQKFQGRVTITADESTSTAYMELSSLRSEDTAVYYCARGGNYISFPMYYWGQGTLVTVSSGGGGSGGGGSGGGGSGGGGASDIVMTQTPLSLSVTPGQPASISCKASRGVSTALYWYLQKPGQPPQLLIYWASNRFSGVPDRFSGSGSGTDFTLKISRVEAEDVGVYYCQQHYDTPYTFGQGTKLEIK
notes: as for B1
binding result [1]: binds | binding result [2]: binds

B3: scFv-27B4-H4-L1 (scFv)
scFv: EVQLVQSGAEVKKPGESLKISCKASGYTFTTYWIGWVRQMPGKGLEWMGIIYPGDGGSRYSPSFQGQVTISADKSISTAYLQWSSLKASDTAMYYCARGGNYISFPMYYWGQGTLVTVSSGGGGSGGGGSGGGGSGGGGASDIQMTQSPSSLSASMGDRVTITCKASRGVSTALNWYQQKPGKAPKLLIYWASSLQSGVPSRFSGSGSGTDFTLTISSLQPEDFATYYCQQHYDTPYTFGQGTKLEIK
notes: as for B1
binding result [1]: binds | binding result [2]: binds

B4: scFv-27B4-H4-L2 (scFv)
scFv: EVQLVQSGAEVKKPGESLKISCKASGYTFTTYWIGWVRQMPGKGLEWMGIIYPGDGGSRYSPSFQGQVTISADKSISTAYLQWSSLKASDTAMYYCARGGNYISFPMYYWGQGTLVTVSSGGGGSGGGGSGGGGSGGGGASVIWMTQSPSLLSASTGDRVTISCKASRGVSTALAWYQQKPGKAPELLIYWASTLQSGVPSRFSGSGSGTDFTLTISCLQSEDFATYYCQQHYDTPYTFGQGTKLEIK
notes: Expressed from phage display vector pXY in TG1, purified on a nickel column
binding result [1]: binds | binding result [2]: binds

B5: scFv-27B4-H3-L3 (scFv)
scFv: QVQLVQSGSELKKPGASVKVSCKASGYTFTTYWMNWVRQAPGQGLEWMGWIYPGDGGSTYAQGFTGRFVFSLDTSVSTAYLQICSLKAEDTAVYYCARGGNYISFPMYYWGQGTLVTVSSGGGGSGGGGSGGGGSGGGGASEIVMTQSPATLSVSPGERATLSCKASRGVSTALAWYQQKPGQAPRLLIYWASTRATGIPARFSGSGSGTEFTLTISSLQSEDFAVYYCQQHYDTPYTFGQGTKLEIK
notes: as for B1
binding result [1]: binds | binding result [2]: binds

B6: scFv-27B4-H3-L5 (scFv)
scFv: QVQLVQSGSELKKPGASVKVSCKASGYTFTTYWMNWVRQAPGQGLEWMGWIYPGDGGSTYAQGFTGRFVFSLDTSVSTAYLQICSLKAEDTAVYYCARGGNYISFPMYYWGQGTLVTVSSGGGGSGGGGSGGGGSGGGGASDIVMTQTPLSLSVTPGQPASISCKASRGVSTALYWYLQKPGQPPQLLIYWASNRFSGVPDRFSGSGSGTDFTLKISRVEAEDVGVYYCQQHYDTPYTFGQGTKLEIK
notes: as for B1
binding result [1]: binds | binding result [2]: binds

B7: scFv-27B4-H1-L4 (scFv)
scFv: QVQLVQSGAEVKKPGASVKVSCKASGYTFTTYWMHWVRQAPGQGLEWMGIIYPGDGGSSYAQKFQGRVTMTRDTSTSTVYMELSSLRSEDTAVYYCARGGNYISFPMYYWGQGTLVTVSSGGGGSGGGGSGGGGSGGGGASEIVLTQSPDFQSVTPKEKVTITCKASRGVSTALHWYQQKPDQSPKLLIKWASQSFSGVPSRFSGSGSGTDFTLTINSLEAEDAATYYCQQHYDTPYTFGQGTKLEIK
notes: as for B1
binding result [1]: binds | binding result [2]: binds

B8: scFv-27B4-H2-L4 (scFv)
scFv: QVQLVQSGAEVKKPGSSVKVSCKASGYTFTTYWISWVRQAPGQGLEWMGGIYPGDGGSNYAQKFQGRVTITADESTSTAYMELSSLRSEDTAVYYCARGGNYISFPMYYWGQGTLVTVSSGGGGSGGGGSGGGGSGGGGASEIVLTQSPDFQSVTPKEKVTITCKASRGVSTALHWYQQKPDQSPKLLIKWASQSFSGVPSRFSGSGSGTDFTLTINSLEAEDAATYYCQQHYDTPYTFGQGTKLEIK
notes: as for B1
binding result [1]: binds | binding result [2]: binds

B9: scFv-27B4-H1-L3 (scFv)
scFv: QVQLVQSGAEVKKPGASVKVSCKASGYTFTTYWMHWVRQAPGQGLEWMGIIYPGDGGSSYAQKFQGRVTMTRDTSTSTVYMELSSLRSEDTAVYYCARGGNYISFPMYYWGQGTLVTVSSGGGGSGGGGSGGGGSGGGGASEIVMTQSPATLSVSPGERATLSCKASRGVSTALAWYQQKPGQAPRLLIYWASTRATGIPARFSGSGSGTEFTLTISSLQSEDFAVYYCQQHYDTPYTFGQGTKLEIK
notes: as for B1
binding result [1]: binds | binding result [2]: binds

B10: scFv-27B4-H2-L3 (scFv)
scFv: QVQLVQSGAEVKKPGSSVKVSCKASGYTFTTYWISWVRQAPGQGLEWMGGIYPGDGGSNYAQKFQGRVTITADESTSTAYMELSSLRSEDTAVYYCARGGNYISFPMYYWGQGTLVTVSSGGGGSGGGGSGGGGSGGGGASEIVMTQSPATLSVSPGERATLSCKASRGVSTALAWYQQKPGQAPRLLIYWASTRATGIPARFSGSGSGTEFTLTISSLQSEDFAVYYCQQHYDTPYTFGQGTKLEIK
notes: as for B4
binding result [1]: binds | binding result [2]: binds

B11: scFv-27B4-H2-L2 (scFv)
scFv: QVQLVQSGAEVKKPGSSVKVSCKASGYTFTTYWISWVRQAPGQGLEWMGGIYPGDGGSNYAQKFQGRVTITADESTSTAYMELSSLRSEDTAVYYCARGGNYISFPMYYWGQGTLVTVSSGGGGSGGGGSGGGGSGGGGASVIWMTQSPSLLSASTGDRVTISCKASRGVSTALAWYQQKPGKAPELLIYWASTLQSGVPSRFSGSGSGTDFTLTISCLQSEDFATYYCQQHYDTPYTFGQGTKLEIK
notes: as for B4
binding result [1]: binds | binding result [2]: binds

B12: scFv-27B4-H3-L1 (scFv)
scFv: QVQLVQSGSELKKPGASVKVSCKASGYTFTTYWMNWVRQAPGQGLEWMGWIYPGDGGSTYAQGFTGRFVFSLDTSVSTAYLQICSLKAEDTAVYYCARGGNYISFPMYYWGQGTLVTVSSGGGGSGGGGSGGGGSGGGGASDIQMTQSPSSLSASMGDRVTITCKASRGVSTALNWYQQKPGKAPKLLIYWASSLQSGVPSRFSGSGSGTDFTLTISSLQPEDFATYYCQQHYDTPYTFGQGTKLEIK
notes: as for B1
binding result [1]: binds | binding result [2]: binds

B13: scFv-27B4-H3-L2 (scFv)
scFv: QVQLVQSGSELKKPGASVKVSCKASGYTFTTYWMNWVRQAPGQGLEWMGWIYPGDGGSTYAQGFTGRFVFSLDTSVSTAYLQICSLKAEDTAVYYCARGGNYISFPMYYWGQGTLVTVSSGGGGSGGGGSGGGGSGGGGASVIWMTQSPSLLSASTGDRVTISCKASRGVSTALAWYQQKPGKAPELLIYWASTLQSGVPSRFSGSGSGTDFTLTISCLQSEDFATYYCQQHYDTPYTFGQGTKLEIK
notes: as for B1
binding result [1]: binds | binding result [2]: binds

B14: scFv-27B4-H1-L1 (scFv)
scFv: QVQLVQSGAEVKKPGASVKVSCKASGYTFTTYWMHWVRQAPGQGLEWMGIIYPGDGGSSYAQKFQGRVTMTRDTSTSTVYMELSSLRSEDTAVYYCARGGNYISFPMYYWGQGTLVTVSSGGGGSGGGGSGGGGSGGGGASDIQMTQSPSSLSASMGDRVTITCKASRGVSTALNWYQQKPGKAPKLLIYWASSLQSGVPSRFSGSGSGTDFTLTISSLQPEDFATYYCQQHYDTPYTFGQGTKLEIK
notes: as for B1
binding result [1]: binds | binding result [2]: binds

B15: scFv-27B4-H1-L2 (scFv)
scFv: QVQLVQSGAEVKKPGASVKVSCKASGYTFTTYWMHWVRQAPGQGLEWMGIIYPGDGGSSYAQKFQGRVTMTRDTSTSTVYMELSSLRSEDTAVYYCARGGNYISFPMYYWGQGTLVTVSSGGGGSGGGGSGGGGSGGGGASVIWMTQSPSLLSASTGDRVTISCKASRGVSTALAWYQQKPGKAPELLIYWASTLQSGVPSRFSGSGSGTDFTLTISCLQSEDFATYYCQQHYDTPYTFGQGTKLEIK
notes: as for B1
binding result [1]: binds | binding result [2]: binds

B16: scFv-27B4-H2-L1 (scFv)
scFv: QVQLVQSGAEVKKPGSSVKVSCKASGYTFTTYWISWVRQAPGQGLEWMGGIYPGDGGSNYAQKFQGRVTITADESTSTAYMELSSLRSEDTAVYYCARGGNYISFPMYYWGQGTLVTVSSGGGGSGGGGSGGGGSGGGGASDIQMTQSPSSLSASMGDRVTITCKASRGVSTALNWYQQKPGKAPKLLIYWASSLQSGVPSRFSGSGSGTDFTLTISSLQPEDFATYYCQQHYDTPYTFGQGTKLEIK
notes: as for B1
binding result [1]: binds | binding result [2]: binds

B17: scFv-27B4-H3-L4 (scFv)
scFv: QVQLVQSGSELKKPGASVKVSCKASGYTFTTYWMNWVRQAPGQGLEWMGWIYPGDGGSTYAQGFTGRFVFSLDTSVSTAYLQICSLKAEDTAVYYCARGGNYISFPMYYWGQGTLVTVSSGGGGSGGGGSGGGGSGGGGASEIVLTQSPDFQSVTPKEKVTITCKASRGVSTALHWYQQKPDQSPKLLIKWASQSFSGVPSRFSGSGSGTDFTLTINSLEAEDAATYYCQQHYDTPYTFGQGTKLEIK
notes: as for B1
binding result [1]: binds | binding result [2]: binds
